Molecular target: Spike RBD (SARS-CoV-2, UniProt P0DTC2 SEQ:1-223)
Assay: filter

B1: 26874-29_4 (SL1111) (ssDNA)
DNA: CCTTGGGATACTATGCGTCCGACCGCTCGGACGGAGAAGG
modifications: Y=Tyr-dU, p=Nap-dC; printed …pYAYGpGYppGAppGpYpGGApGGAGAAGG [Tyr-dU: 9,12,14,18,27; Nap-dC: 11,16,19,20,23,24,26,28,32]
With B1 the Kd was 0.3 nM.
